T1: KvAP channel from Aeropyrum pernix, wild type (Aeropyrum pernix, UniProt Q9YDF8 14-295)
T1 sequence (looked up): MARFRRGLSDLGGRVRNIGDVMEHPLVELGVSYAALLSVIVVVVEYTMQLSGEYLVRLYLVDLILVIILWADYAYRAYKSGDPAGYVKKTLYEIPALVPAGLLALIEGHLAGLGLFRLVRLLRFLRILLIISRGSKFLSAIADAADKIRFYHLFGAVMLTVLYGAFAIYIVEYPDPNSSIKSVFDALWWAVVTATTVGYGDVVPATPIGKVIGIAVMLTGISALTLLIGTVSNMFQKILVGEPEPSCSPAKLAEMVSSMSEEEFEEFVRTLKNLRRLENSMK


Legend:
[1] = target: full-length KvAP-T225C (Aeropyrum pernix); assay: cross-linking
[2] = target: T1, KvAP channel from Aeropyrum pernix, …; assay: electrophysiology

Row | stoichiometry N [1] | Kd [2] [µM] | Molecule
1 | 4 |  | full-length KvAP-T225C (natural protein)
2 |  | 21.2 ± 3.5 | GNHAEIYSNHHMMSHVGGGR [synthetic φD peptide]

From paper PMC3072105 (Nature Communications, 2011)
